Results reported in paper PMC7585203 (Epigenetics & Chromatin, 2020).
Residue numbers refer to the chain shown, from its start. Where no end group is shown, it is not given here.

What was measured:
Test in all cases: fluorescence polarisation; FAM-labelled peptide with GST-tagged domains or MBP-tagged full-length UHRF1; as described in ref. 4, plotted as change in anisotropy
Conditions in all cases: both partners purified
[1] = target: T1, GST-tagged UHRF1 tandem Tudor domain (TTD, a.a. 125–285) ( (printed UniProt entry is …, UniProt Q96T88 125-285))
T1 construct: also called UHRF1 TTD; source: recombinant GST fusion
T1 sequence (looked up): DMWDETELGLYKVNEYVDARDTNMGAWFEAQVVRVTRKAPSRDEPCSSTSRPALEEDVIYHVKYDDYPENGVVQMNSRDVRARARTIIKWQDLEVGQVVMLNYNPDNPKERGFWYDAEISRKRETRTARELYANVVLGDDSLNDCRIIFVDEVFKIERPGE

[2] = target: T2, GST-tagged UHRF1 TTD–PHD R295A/R296A ( (printed UniProt entry is …, UniProt Q96T88 125-364, R295A | R296A))
T2 construct: also called mutation of L2 (R295A/R296A); TTD–PHD mutant; source: recombinant GST fusion
T2 sequence (looked up): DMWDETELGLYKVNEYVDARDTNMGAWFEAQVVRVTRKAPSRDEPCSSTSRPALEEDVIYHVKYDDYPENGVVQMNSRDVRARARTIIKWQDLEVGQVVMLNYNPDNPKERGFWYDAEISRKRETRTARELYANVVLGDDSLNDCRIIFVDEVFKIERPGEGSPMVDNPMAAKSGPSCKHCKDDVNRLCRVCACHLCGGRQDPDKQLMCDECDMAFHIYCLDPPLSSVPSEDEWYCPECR

[3] = target: T3, GST-tagged UHRF1 TTD–PHD S298E ( (printed UniProt entry is …, UniProt Q96T88 125-364, S298E))
T3 construct: also called phospho-mimetic mutation in L2; source: recombinant GST fusion
T3 sequence (looked up): T2 sequence (looked up) with A171R, A172R, S174E

[4] = target: T4, UHRF1 full-length (a.a. 1–793), MBP fusion ( (printed UniProt entry is …, UniProt Q96T88 1-793))
T4 construct: also called recombinant full-length UHRF1; full-length UHRF1; not shown: MBP, N-terminal, kept
T4 sequence (looked up): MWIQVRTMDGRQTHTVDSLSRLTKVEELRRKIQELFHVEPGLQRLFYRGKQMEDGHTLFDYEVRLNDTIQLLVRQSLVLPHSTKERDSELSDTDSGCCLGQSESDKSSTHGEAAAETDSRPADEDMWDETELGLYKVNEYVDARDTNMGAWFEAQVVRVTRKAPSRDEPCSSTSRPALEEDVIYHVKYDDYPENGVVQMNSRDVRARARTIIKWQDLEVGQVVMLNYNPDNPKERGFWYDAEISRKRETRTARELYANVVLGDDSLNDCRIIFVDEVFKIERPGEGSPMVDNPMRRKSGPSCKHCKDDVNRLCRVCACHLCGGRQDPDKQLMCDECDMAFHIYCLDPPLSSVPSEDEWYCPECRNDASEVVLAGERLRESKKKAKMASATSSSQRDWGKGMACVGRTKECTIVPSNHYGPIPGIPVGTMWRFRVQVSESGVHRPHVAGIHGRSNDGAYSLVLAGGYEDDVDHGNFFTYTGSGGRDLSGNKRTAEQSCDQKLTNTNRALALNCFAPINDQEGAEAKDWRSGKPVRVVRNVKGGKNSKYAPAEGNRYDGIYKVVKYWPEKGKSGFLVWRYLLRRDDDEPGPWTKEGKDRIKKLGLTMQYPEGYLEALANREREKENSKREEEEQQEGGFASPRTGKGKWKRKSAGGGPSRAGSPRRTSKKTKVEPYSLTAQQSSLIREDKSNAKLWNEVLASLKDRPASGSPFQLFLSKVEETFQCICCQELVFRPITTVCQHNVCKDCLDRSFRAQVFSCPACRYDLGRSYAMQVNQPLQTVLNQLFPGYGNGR

B1: FAM-LIG1(118–130)K126me2 peptide (peptide)
peptide: {FAM}-IPKRRTARK(Me2)QLPK
modifications: not fully specified (C-terminus); printed as FAM-LIG1(118–130)K126me2 peptide
notes: DNA ligase 1 (LIG1), residues 118-130; also called FAM-LIG1K126me2; LIG1K126me2 peptide; source: bought: GenScript (synthetic peptide)
Kd [1]: 30 to 80 nM
binding result [2]: binds
binding result [3]: binds
Kd [4]: 41 nM
